Test results from patent publication WO2020003077A1 (dated 2020).
Substitutions are numbered along the chain they refer to. Numbers in names are those of the source. Each block holds one binder with its values, some of them ahead of it.

Experiments:
[1] = target: T1, human thrombin (human, UniProt P00734 314-363; P00734 364-622); assay: cell-based or functional assay
[2] = target: prothrombin (UniProt P00734 44-622); assay: ForteBio Octet, immobilized IgG
[3] = target: T1, human thrombin; assay: standard ELISA binding assay

- thrombin hydrolysis of FVIII (feedback activation of thrombin via Xase complex), antibody effect [1]: 7 fold decrease
- thrombin hydrolysis of platelet receptor PAR-1 peptide (activation of platelets), antibody effect [1]: 15 fold decrease
B1: wild-type anti-exosite 1 IgA antibody (antibody, V domains shown)
VH: QVQLIQSGSAVKKPGASVRVSCKVSGYTLTEAAIHWVRQAPGKGLEWMGGLDPQDGETVYAQQFKGRVTMTEDRSTDTAYMEVNNLRSEDTATYYCTTGDFSEFEPFSMDYFHFWGQGTVVTVAS
VL: EIVLTQSPATLSLSPGERATLSCRASQNVSSFLAWYQHKPGQAPRLLIYDASSRATDIPIRFSGSGSGTDFTLTISGLEPEDFAVYYCQQRRSWPPLTFGGGTKVEIKR

- binding result [2]: no binding (tested: 500nM)
B2: synthetic anti-exosite 1 IgG antibody (antibody, V domains shown)
VH: B1 VH
VL: B1 VL
notes: also called synthetic IgG; anti-exosite IgG antibody

- binding result [3]: binds
B3: synthetic anti-exosite 1 IgG S30A variant antibody (antibody, name in Kabat numbering, V domains shown)
VH: B1 VH
VL: B1 VL with S30A
notes: also called ichorcumab S30A; ichorcumab
